Data from the supplement of paper PMC5998384.

Key:
HeLa Kyoto [1] = test: solubility in G1/S (NP-40 vs SDS abundance) (log2 ratio); higher = more soluble; details: cell cycle stage: G1/S
HeLa Kyoto [2] = test: melting temperature (median over replicates), in situ; higher = more thermally stable
HeLa Kyoto [3] = test: solubility change mitosis vs G1/S (difference of NP-40 vs SDS log2 ratios) (log2 ratio difference); higher = more soluble in mitosis
HeLa Kyoto [4] = test: thermal stability score vs G1/S (z-score of summed log2 fold changes over temperatures); higher = more thermally stable than in G1/S
[5] = cell cycle stage: early G1 (4.5 h after nocodazole release)
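For melting temperature (median over replicates), in situ in this document: HeLa Kyoto cells synchronized by double thymidine or nocodazole block, proteins quantified by TMT10plex mass spectrometry, three independent biological replicates.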
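For solubility change mitosis vs G1/S (difference of NP-40 vs SDS log2 ratios) in this document: synchronized HeLa Kyoto cells (double thymidine block for G1/S, nocodazole release for mitosis), protein amounts in NP-40 versus SDS lysates quantified by mass spectrometry, three biological replicates.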
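For solubility in G1/S (NP-40 vs SDS abundance) in this document: HeLa Kyoto cells arrested at G1/S by double thymidine block, proteins quantified by TMT10plex mass spectrometry in mild NP-40 versus SDS extracts, three biological replicates.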
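For thermal stability score vs G1/S (z-score of summed log2 fold changes over temperatures) in this document: synchronized HeLa Kyoto cells, proteins quantified by TMT10plex mass spectrometry, three biological replicates, mitosis taken 0.5 h after nocodazole release, G1/S directly after double thymidine block.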

Row | Sequence | solubility in G1/S (log2) (HeLa Kyoto [1]) | melting temperature (HeLa Kyoto [2]; cell cycle stage: G1/S) [°C] | melting temperature (HeLa Kyoto [2]; cell cycle stage: mitosis) [°C] | solubility change mitosis (log2) (HeLa Kyoto [3]) | thermal stability score (HeLa Kyoto [4]; [5]) | thermal stability score (HeLa Kyoto [4]; cell cycle stage: mitosis)
1 | MATHGQTCARPMCIPPSYADLGKAARDIFNKGFGFGLVKLDVKTKSCSGVEFSTSGSSNTDTGKVTGTLETKYKWCEYGLTFTEKWNTDNTLGTEIAIEDQICQGLKLTFDTTFSPNTGKKSGKIKSSYKRECINLGCDVDFDFAGPAIHGSAVFGYEGWLAGYQMTFDSAKSKLTRNNFAVGYRTGDFQLHTNVNDGTEFGGSIYQKVCEDLDTSVNLAWTSGTNCTRFGIAAKYQLDPTASISAKVNNSSLIGVGYTQTLRPGVKLTLSALVDGKSINAGGHKVGLALELEA [VDAC2] | -0.125 | 59.9 | 60.3 | -0.0952 | -1.16 | -4.22
2 | MATKCGNCGPGYSTPLEAMKGPREEIVYLPCIYRNTGTEAPDYLATVDVDPKSPQYCQVIHRLPMPNLKDELHHSGWNTCSSCFGDSTKSRTKLVLPSLISSRIYVVDVGSEPRAPKLHKVIEPKDIHAKCELAFLHTSHCLASGEVMISSLGDVKGNGKGGFVLLDGETFEVKGTWERPGGAAPLGYDFWYQPRHNVMISTEWAAPNVLRDGFNPADVEAGLYGSHLYVWDWQRHEIVQTLSLKDGLIPLEIRFLHNPDAAQGFVGCALSSTIQRFYKNEGGTWSVEKVIQVPPKKVKGWLLPEMPGLITDILLSLDDRFLYFSNWLHGDLRQYDISDPQRPRLTGQLFLGGSIVKGGPVQVLEDEELKSQPEPLVVKGKRVAGGPQMIQLSLDGKRLYITTSLYSAWDKQFYPDLIREGSVMLQVDVDTVKGGLKLNPNFLVDFGKEPLGPALAHELRYPGGDCSSDIWI [SELENBP1] | 0.265 | 59.7 | 60.9 | -0.131 | -0.479 | -0.737
3 | MATKGGTVKAASGFNAMEDAQTLRKAMKGLGTDEDAIISVLAYRNTAQRQEIRTAYKSTIGRDLIDDLKSELSGNFEQVIVGMMTPTVLYDVQELRRAMKGAGTDEGCLIEILASRTPEEIRRISQTYQQQYGRSLEDDIRSDTSFMFQRVLVSLSAGGRDEGNYLDDALVRQDAQDLYEAGEKKWGTDEVKFLTVLCSRNRNHLLHVFDEYKRISQKDIEQSIKSETSGSFEDALLAIVKCMRNKSAYFAEKLYKSMKGLGTDDNTLIRVMVSRAEIDMLDIRAHFKRLYGKSLYSFIKGDTSGDYRKVLLVLCGGDD [ANXA4] | 0.48 | 50.1 | 50.2 | 0.0251 | 5.77 | 4.03
4 | MATLITSTTAATAASGPLVDYLWMLILGFIIAFVLAFSVGANDVANSFGTAVGSGVVTLKQACILASIFETVGSVLLGAKVSETIRKGLIDVEMYNSTQGLLMAGSVSAMFGSAVWQLVASFLKLPISGTHCIVGATIGFSLVAKGQEGVKWSELIKIVMSWFVSPLLSGIMSGILFFLVRAFILHKADPVPNGLRALPVFYACTVGINLFSIMYTGAPLLGFDKLPLWGTILISVGCAVFCALIVWFFVCPRMKRKIEREIKCSPSESPLMEKKNSLKEDHEETKLSVGDIENKHPVSEVGPATVPLQAVVEERTVSFKLGDLEEAPERERLPSVDLKEETSIDSTVNGAVQLPNGNLVQFSQAVSNQINSSGHYQYHTVHKDSGLYKELLHKLHLAKVGDCMGDSGDKPLRRNNSYTSYTMAICGMPLDSFRAKEGEQKGEEMEKLTWPNADSKKRIRMDSYTSYCNAVSDLHSASEIDMSVKAEMGLGDRKGSNGSLEEWYDQDKPEVSLLFQFLQILTACFGSFAHGGNDVSNAIGPLVALYLVYDTGDVSSKVATPIWLLLYGGVGICVGLWVWGRRVIQTMGKDLTPITPSSGFSIELASALTVVIASNIGLPISTTHCKVGSVVSVGWLRSKKAVDWRLFRNIFMAWFVTVPISGVISAAIMAIFRYVILRM [SLC20A1] | -0.24 | – | 55.9 | -0.149 | 0.26 | -0.79
5 | MATLLSHPQQRPPFLRQAIKIRRRRVRDLQDPPPQMAPEIQPPSHHFSPEQRALLYEDALYTVLHRLGHPEPNHVTEASELLRYLQEAFHVEPEEHQQTLQRVRELEKPIFCLKATVKQAKGILGKDVSGFSDPYCLLGIEQGVGVPGGSPGSRHRQKAVVRHTIPEEETHRTQVITQTLNPVWDETFILEFEDITNASFHLDMWDLDTVESVRQKLGELTDLHGLRRIFKEARKDKGQDDFLGNVVLRLQDLRCREDQWYPLEPRTETYPDRGQCHLQFQLIHKRRATSASRSQPSYTVHLHLLQQLVSHEVTQHEAGSTSWDGSLSPQAATVLFLHATQKDLSDFHQSMAQWLAYSRLYQSLEFPSSCLLHPITSIEYQWIQGRLKAEQQEELAASFSSLLTYGLSLIRRFRSVFPLSVSDSPARLQSLLRVLVQMCKMKAFGELCPNTAPLPQLVTEALQTGTTEWFHLKQQHHQPMVQGIPEAGKALLGLVQDVIGDLHQCQRTWDKIFHNTLKIHLFSMAFRELQWLVAKRVQDHTTVVGDVVSPEMGESLFQLYISLKELCQLRMSSSERDGVLALDNFHRWFQPAIPSWLQKTYNEALARVQRAVQMDELVPLGELTKHSTSAVDLSTCFAQISHTARQLDWPDPEEAFMITVKFVEDTCRLALVYCSLIKARARELSSGQKDQGQAANMLCVVVNDMEQLRLVIGKLPAQLAWEALEQRVGAVLEQGQLQNTLHAQLQSALAGLGHEIRTGVRTLAEQLEVGIAKHIQKLVGVRESVLPEDAILPLMKFLEVELCYMNTNLVQENFSSLLTLLWTHTLTVLVEAAASQRSSSLASNRLKIALQNLEICFHAEGCGLPPKALHTATFQALQRDLELQAASSRELIRKYFCSRIQQQAETTSEELGAVTVKASYRASEQKLRVELLSASSLLPLDSNGSSDPFVQLTLEPRHEFPELAARETQKHKKDLHPLFDETFEFLVPAEPCRKAGACLLLTVLDYDTLGADDLEGEAFLPLREVPGLSGSEEPGEVPQTRLPLTYPAPNGDPILQLLEGRKGDREAQVFVRLRRHRAKQASQHALRPAP [UNC13D] | -0.0281 | 51.5 | 51.4 | -0.0257 | -0.00435 | 0.185
6 | MATNFLAHEKIWFDKFKYDDAERRFYEQMNGPVAGASRQENGASVILRDIARARENIQKSLAGSSGPGASSGTSGDHGELVVRIASLEVENQSLRGVVQELQQAISKLEARLNVLEKSSPGHRATAPQTQHVSPMRQVEPPAKKPATPAEDDEDDDIDLFGSDNEEEDKEAAQLREERLRQYAEKKAKKPALVAKSSILLDVKPWDDETDMAQLEACVRSIQLDGLVWGASKLVPVGYGIRKLQIQCVVEDDKVGTDLLEEEITKFEEHVQSVDIAAFNKI [EEF1D] | 0.332 | 50.6 | 50.6 | 0.255 | 1.79 | 2.76
7 | MATNWGSLLQDKQQLEELARQAVDRALAEGVLLRTSQEPTSSEVVSYAPFTLFPSLVPSALLEQAYAVQMDFNLLVDAVSQNAAFLEQTLSSTIKQDDFTARLFDIHKQVLKEGIAQTVFLGLNRSDYMFQRSADGSPALKQIEINTISASFGGLASRTPAVHRHVLSVLSKTKEAGKILSNNPSKGLALGIAKAWELYGSPNALVLLIAQEKERNIFDQRAIENELLARNIHVIRRTFEDISEKGSLDQDRRLFVDGQEIAVVYFRDGYMPRQYSLQNWEARLLLERSHAAKCPDIATQLAGTKKVQQELSRPGMLEMLLPGQPEAVARLRATFAGLYSLDVGEEGDQAIAEALAAPSRFVLKPQREGGGNNLYGEEMVQALKQLKDSEERASYILMEKIEPEPFENCLLRPGSPARVVQCISELGIFGVYVRQEKTLVMNKHVGHLLRTKAIEHADGGVAAGVAVLDNPYPV [GSS] | 0.238 | 58.6 | 58.6 | -0.0933 | -2.26 | -1.74
8 | MATPAGLERWVQDELHSVLGLSERHVAQFLIGTAQRCTSAEEFVQRLRDTDTLDLSGPARDFALRLWNKVPRKAVVEKPARAAEREARALLEKNRSYRLLEDSEESSEETVSRAGSSLQKKRKKRKHLRKKREEEEEEEASEKGKKKTGGSKQQTEKPESEDEWERTERERLQDLEERDAFAERVRQRDKDRTRNVLERSDKKAYEEAQKRLKMAEEDRKAMVPELRKKSRREYLAKREREKLEDLEAELADEEFLFGDVELSRHERQELKYKRRVRDLAREYRAAGEQEKLEATNRYHMPKETRGQPARAVDLVEEESGAPGEEQRRWEEARLGAASLKFGARDAASQEPKYQLVLEEEETIEFVRATQLQGDEEPSAPPTSTQAQQKESIQAVRRSLPVFPFREELLAAIANHQVLIIEGETGSGKTTQIPQYLFEEGYTNKGMKIACTQPRRVAAMSVAARVAREMGVKLGNEVGYSIRFEDCTSERTVLRYMTDGMLLREFLSEPDLASYSVVMVDEAHERTLHTDILFGLIKDVARFRPELKVLVASATMDTARFSTFFDDAPVFRIPGRRFPVDIFYTKAPEADYLEACVVSVLQIHVTQPPGDILVFLTGQEEIEAACEMLQDRCRRLGSKIRELLVLPIYANLPSDMQARIFQPTPPGARKVVVATNIAETSLTIEGIIYVLDPGFCKQKSYNPRTGMESLTVTPCSKASANQRAGRAGRVAAGKCFRLYTAWAYQHELEETTVPEIQRTSLGNVVLLLKSLGIHDLMHFDFLDPPPYETLLLALEQLYALGALNHLGELTTSGRKMAELPVDPMLSKMILASEKYSCSEEILTVAAMLSVNNSIFYRPKDKVVHADNARVNFFLPGGDHLVLLNVYTQWAESGYSSQWCYENFVQFRSMRRARDVREQLEGLLERVEVGLSSCQGDYIRVRKAITAGYFYHTARLTRSGYRTVKQQQTVFIHPNSSLFEQQPRWLLYHELVLTTKEFMRQVLEIESSWLLEVAPHYYKAKELEDPHAKKMPKKIGKTREELG [DHX16] | -0.394 | 49.9 | 50.8 | 0.00704 | 1.68 | 2.22
9 | MATPSAAFEALMNGVTSWDVPEDAVPCELLLIGEASFPVMVNDMGQVLIAASSYGRGRLVVVSHEDYLVEAQLTPFLLNAVGWLCSSPGAPIGVHPSLAPLAKILEGSGVDAKVEPEVKDSLGVYCIDAYNETMTEKLVKFMKCGGGLLIGGQAWDWANQGEDERVLFTFPGNLVTSVAGIYFTDNKGDTSFFKVSKKMPKIPVLVSCEDDLSDDREELLHGISELDISNSDCFPSQLLVHGALAFPLGLDSYHGCVIAAARYGRGRVVVTGHKVLFTVGKLGPFLLNAVRWLDGGRRGKVVVQTELRTLSGLLAVGGIDTSIEPNLTSDASVYCFEPVSEVGVKELQEFVAEGGGLFVGAQAWWWAFKNPGVSPLARFPGNLLLNPFGISITSQSLNPGPFRTPKAGIRTYHFRSTLAEFQVIMGRKRGNVEKGWLAKLGPDGAAFLQIPAEEIPAYMSVHRLLRKLLSRYRLPVATRENPVINDCCRGAMLSLATGLAHSGSDLSLLVPEIEDMYSSPYLRPSESPITVEVNCTNPGTRYCWMSTGLYIPGRQIIEVSLPEAAASADLKIQIGCHTDDLTRASKLFRGPLVINRCCLDKPTKSITCLWGGLLYIIVPQNSKLGSVPVTVKGAVHAPYYKLGETTLEEWKRRIQENPGPWGELATDNIILTVPTANLRTLENPEPLLRLWDEVMQAVARLGAEPFPLRLPQRIVADVQISVGWMHAGYPIMCHLESVQELINEKLIRTKGLWGPVHELGRNQQRQEWEFPPHTTEATCNLWCVYVHETVLGIPRSRANIALWPPVREKRVRIYLSKGPNVKNWNAWTALETYLQLQEAFGWEPFIRLFTEYRNQTNLPTENVDKMNLWVKMFSHQVQKNLAPFFEAWAWPIQKEVATSLAYLPEWKENIMKLYLLTQMPH [TCAF1] | -0.143 | 49.9 | 49.8 | -0.185 | 0.502 | 2.06
10 | MATRQRESSITSCCSTSSCDADDEGVRGTCEDASLCKRFAVSIGYWHDPYIQHFVRLSKERKAPEINRGYFARVHGVSQLIKAFLRKTECHCQIVNLGAGMDTTFWRLKDEDLLPSKYFEVDFPMIVTRKLHSIKCKPPLSSPILELHSEDTLQMDGHILDSKRYAVIGADLRDLSELEEKLKKCNMNTQLPTLLIAECVLVYMTPEQSANLLKWAANSFERAMFINYEQVNMGDRFGQIMIENLRRRQCDLAGVETCKSLESQKERLLSNGWETASAVDMMELYNRLPRAEVSRIESLEFLDEMELLEQLMRHYCLCWATKGGNELGLKEITY [LCMT1] | 0.181 | 52.1 | 53.5 | -0.123 | 0.211 | 0.493
